The results in this text go back to publication PMC314469, “Protein Interaction Networks by Proteome Peptide Scanning” (PLoS Biology, 2004).

One experiment concerns the target endophilin SH3 (SH3G2_HUMAN), Q99962. The experiment in a line: SPOT array.
QKDVIRRPTFVPQW [Q9P0Y7 137-150] returned a normalised SPOT signal, Boehringer light units (BLU); mean over the file's lines of this peptide of 91.5.
For QPLGPAKPPAQQTG [Q9Y6V0 327-341], the normalised SPOT signal, Boehringer light units (BLU); mean over the file's lines of this peptide stood at 63.4.
Same read-out and setting: as for QLFTPNRPKKREIY [Q9BWY5 227-240], the figure is 698; as for QPQSLRRPLWLSHS [Q9H8J7 161-174], 1380; as for QPLEPKRPPPPRPV [O43426 1101-1114], 124.
The same measure, in the same setting: with QLWDIRRPDRSERM [Q96S15 319-332] the figure was 692; with QPDGPARPPGMAPS [Q96KZ1 72-86], 39.7; with QLVILRRPERPMED [Q96NX7 585-598], 16.7.
The same measure, in the same setting: with ATSRFYRPPRSSHS [Q9C0B5 150-163] the figure was 400; with QLQAPDRPSRELLQ [Q9H6Q4 405-418], 377; with QNRPLIRPKKRLIV [P15976 237-250], 1510.
On to QPALLKRPQLELYV [Q9Y477 106-119], for which the normalised SPOT signal, Boehringer light units (BLU); mean over the file's lines of this peptide was 52.6.
QPLGPRRPMRPVGH [Q07092 192-205]: the normalised SPOT signal, Boehringer light units (BLU); mean over the file's lines of this peptide amounted to 2870.
With QQFRLRRPSGITWP [Q96RY6 139-152], the normalised SPOT signal, Boehringer light units (BLU); mean over the file's lines of this peptide worked out at 116.
The same measure, in the same setting: with QPGSPRKPPMDEKS [P08263 197-211] the figure was 68.3; with QKQDLRRPKIHGAV [Q9UII6 5-18], 85.7; with QPVNPPRPFKHSER [Q9Y381 268-281], 1250.
On the same count and under the same terms, as for QKTRPIKPPPDSQE [Q9H5W5 105-119], the figure is 36.3; as for QPQGPPRPPQGDKP [Q15215 74-88], 94.4.
Still for that read-out and setting: with QKFSLRRPLQTAMI [Q96JF9 85-98] the figure was 73.5; with QPQGPPRPPQGGRP [P04280 312-326], 210.
QLSSPIRPPKYYTY [O43163 368-382] returned a normalised SPOT signal, Boehringer light units (BLU); mean over the file's lines of this peptide of 2940.
As to QLRPPPKPPLPAPD [Q9BZE0 329-343], the normalised SPOT signal, Boehringer light units (BLU); mean over the file's lines of this peptide amounted to 4110.
The same measure, in the same setting: as for QNQSIRRPSRQLAP [O75116 1371-1384], the figure is 665; as for QIRILKRPTSNGVV [Q9Y403 46-59], 148.
On the same count and under the same terms, as for QPGSPRKPPADAKA [Q16772 198-212], the figure is 46.1.
The same measure, in the same setting: with ATSHFYRPPRSSHS [Q9ULC8 29-42] the figure was 218.
Consider ATAFLQRPSRAGSL [Q9C0A3 966-979], for which the normalised SPOT signal, Boehringer light units (BLU); mean over the file's lines of this peptide was found to be 298.

Another experiment has as its target T1, amphyphisin SH3 (AMPH_HUMAN), P49418.
T1 chain: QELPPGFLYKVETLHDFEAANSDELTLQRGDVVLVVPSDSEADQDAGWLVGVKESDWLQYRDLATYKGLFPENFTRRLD
The experiment in a line: SPOT array.
Molecule QKDVIRRPTFVPQW [Q9P0Y7 137-150] displayed a normalised SPOT signal, Boehringer light units (BLU); mean over the file's lines of this peptide of 22.8.
On the same count and under the same terms, as for QPLGPAKPPAQQTG [Q9Y6V0 327-341], the figure is 52.7.
Still for that read-out and setting: as for QLFTPNRPKKREIY [Q9BWY5 227-240], the figure is 165; as for QPQSLRRPLWLSHS [Q9H8J7 161-174], 66.8; as for QPLEPKRPPPPRPV [O43426 1101-1114], 28.6.
The molecule QLWDIRRPDRSERM [Q96S15 319-332] yielded a normalised SPOT signal, Boehringer light units (BLU); mean over the file's lines of this peptide of 2300.
The same measure, in the same setting: with QPDGPARPPGMAPS [Q96KZ1 72-86] the figure was 63.5.
The same measure, in the same setting: with QLVILRRPERPMED [Q96NX7 585-598] the figure was 31.8.
Still for that read-out and setting: with ATSRFYRPPRSSHS [Q9C0B5 150-163] the figure was 5620; with QLQAPDRPSRELLQ [Q9H6Q4 405-418], 3320; with QNRPLIRPKKRLIV [P15976 237-250], 43.3.
Take QPALLKRPQLELYV [Q9Y477 106-119]: the normalised SPOT signal, Boehringer light units (BLU); mean over the file's lines of this peptide is 28.2.
Same read-out and setting: with QPLGPRRPMRPVGH [Q07092 192-205] the figure was 10200; with QQFRLRRPSGITWP [Q96RY6 139-152], 61.5; with QPGSPRKPPMDEKS [P08263 197-211], 59.8.
For QKQDLRRPKIHGAV [Q9UII6 5-18], the normalised SPOT signal, Boehringer light units (BLU); mean over the file's lines of this peptide is 56.3.
Regarding QPVNPPRPFKHSER [Q9Y381 268-281], the normalised SPOT signal, Boehringer light units (BLU); mean over the file's lines of this peptide stood at 275.
Still for that read-out and setting: with QKTRPIKPPPDSQE [Q9H5W5 105-119] the figure was 42.1.
The same measure, in the same setting: with QPQGPPRPPQGDKP [Q15215 74-88] the figure was 84.1; with QKFSLRRPLQTAMI [Q96JF9 85-98], 64.3.
Still for that read-out and setting: as for QPQGPPRPPQGGRP [P04280 312-326], the figure is 58.6.
QLSSPIRPPKYYTY [O43163 368-382] returned a normalised SPOT signal, Boehringer light units (BLU); mean over the file's lines of this peptide of 227.
On the same count and under the same terms, with QLRPPPKPPLPAPD [Q9BZE0 329-343] the figure was 825.
Still for that read-out and setting: as for QNQSIRRPSRQLAP [O75116 1371-1384], the figure is 1460.
Still for that read-out and setting: as for QIRILKRPTSNGVV [Q9Y403 46-59], the figure is 6.4; as for QPGSPRKPPADAKA [Q16772 198-212], 36.6; as for ATSHFYRPPRSSHS [Q9ULC8 29-42], 8300.
In the case of ATAFLQRPSRAGSL [Q9C0A3 966-979], the normalised SPOT signal, Boehringer light units (BLU); mean over the file's lines of this peptide was found to be 15700.
